Results as given in PMC12462528, “Molecular basis of ParA ATPase activation by the CTPase ParB during bacterial chromosome segregation” (Nature Communications, 2025).
Values belong to the molecule of their own block, whether it stands above or below them.

Tests used:
[1] = system: ParA (His6-ParA) (Myxococcus xanthus); assay: BLI; conditions: 1 mM ATP, BLI: 25 mM HEPES/KOH pH 7.6, 100 mM KCl (150 or 500 mM where stated), 10 mM MgSO4, 1 mM DTT, 10 mM (so in the source) BSA, 0.01% Tween 20, temperature not stated
[2] = biological target: T1, ParA (His6-ParA) (Myxococcus xanthus) (UniProt Q1CVJ3); assay: BLI; conditions: BLI: 25 mM HEPES/KOH pH 7.6, 100 mM KCl (150 or 500 mM where stated), 10 mM MgSO4, 1 mM DTT, 10 mM (so in the source) BSA, 0.01% Tween 20; temperature not stated
T1 sequence: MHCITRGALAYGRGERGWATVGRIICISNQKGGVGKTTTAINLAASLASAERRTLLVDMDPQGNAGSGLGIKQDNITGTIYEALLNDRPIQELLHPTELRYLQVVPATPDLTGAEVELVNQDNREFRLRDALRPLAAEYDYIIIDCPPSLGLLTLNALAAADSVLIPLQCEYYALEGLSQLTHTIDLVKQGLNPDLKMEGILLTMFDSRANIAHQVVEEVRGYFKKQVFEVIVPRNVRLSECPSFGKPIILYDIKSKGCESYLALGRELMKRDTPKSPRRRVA

[3] = biological target: T2, ParA-D60A D60A (Myxococcus xanthus) (UniProt Q1CVJ3); assay: BLI; conditions: BLI: 25 mM HEPES/KOH pH 7.6, 100 mM KCl (150 or 500 mM where stated), 10 mM MgSO4, 1 mM DTT, 10 mM (so in the source) BSA, 0.01% Tween 20; temperature not stated
T2 sequence: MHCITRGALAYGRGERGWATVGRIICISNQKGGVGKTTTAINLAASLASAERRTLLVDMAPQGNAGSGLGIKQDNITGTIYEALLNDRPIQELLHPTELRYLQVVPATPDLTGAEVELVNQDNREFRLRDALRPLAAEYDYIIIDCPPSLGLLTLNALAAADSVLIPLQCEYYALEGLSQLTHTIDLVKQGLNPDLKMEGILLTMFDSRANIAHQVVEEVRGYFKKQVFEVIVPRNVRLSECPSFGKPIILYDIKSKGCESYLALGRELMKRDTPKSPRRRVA

[4] = biological target: T3, ParA-R238E (ParA*) R238E (Myxococcus xanthus) (UniProt Q1CVJ3); assay: BLI; conditions: BLI: 25 mM HEPES/KOH pH 7.6, 100 mM KCl (150 or 500 mM where stated), 10 mM MgSO4, 1 mM DTT, 10 mM (so in the source) BSA, 0.01% Tween 20; temperature not stated
T3 sequence: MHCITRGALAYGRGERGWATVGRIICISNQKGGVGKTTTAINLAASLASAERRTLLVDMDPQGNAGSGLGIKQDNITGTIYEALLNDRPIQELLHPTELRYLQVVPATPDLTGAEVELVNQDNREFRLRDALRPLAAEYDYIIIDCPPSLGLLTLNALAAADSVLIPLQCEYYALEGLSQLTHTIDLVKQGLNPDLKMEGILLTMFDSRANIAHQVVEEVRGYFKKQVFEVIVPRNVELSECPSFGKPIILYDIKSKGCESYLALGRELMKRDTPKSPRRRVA

[5] = biological target: T4, ParB (Myxococcus xanthus) (UniProt Q1CVJ4); assay: BLI; conditions: BLI: 25 mM HEPES/KOH pH 7.6, 100 mM KCl (150 or 500 mM where stated), 10 mM MgSO4, 1 mM DTT, 10 mM (so in the source) BSA, 0.01% Tween 20; temperature not stated
T4 sequence: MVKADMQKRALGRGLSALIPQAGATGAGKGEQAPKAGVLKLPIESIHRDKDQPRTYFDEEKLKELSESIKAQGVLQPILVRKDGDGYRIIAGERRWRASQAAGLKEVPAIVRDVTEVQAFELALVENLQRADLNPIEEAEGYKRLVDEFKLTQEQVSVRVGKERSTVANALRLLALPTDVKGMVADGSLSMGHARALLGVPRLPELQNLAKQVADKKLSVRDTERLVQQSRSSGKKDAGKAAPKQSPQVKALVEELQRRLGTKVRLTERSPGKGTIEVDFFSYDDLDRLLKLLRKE

[6] = biological target: T5, ParB delta21 del1-21 (Myxococcus xanthus) (UniProt Q1CVJ4); assay: BLI; conditions: BLI: 25 mM HEPES/KOH pH 7.6, 100 mM KCl (150 or 500 mM where stated), 10 mM MgSO4, 1 mM DTT, 10 mM (so in the source) BSA, 0.01% Tween 20; temperature not stated
T5 sequence: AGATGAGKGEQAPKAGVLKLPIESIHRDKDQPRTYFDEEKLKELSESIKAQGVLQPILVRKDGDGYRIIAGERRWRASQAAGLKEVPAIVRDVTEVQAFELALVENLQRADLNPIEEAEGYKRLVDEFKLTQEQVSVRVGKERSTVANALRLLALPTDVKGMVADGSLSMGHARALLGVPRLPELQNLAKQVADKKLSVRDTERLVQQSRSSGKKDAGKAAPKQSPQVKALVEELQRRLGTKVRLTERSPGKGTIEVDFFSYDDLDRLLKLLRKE

[7] = biological target: T6, ParB-Q52A (ParB*) Q52A (Myxococcus xanthus) (UniProt Q1CVJ4); assay: BLI; conditions: BLI: 25 mM HEPES/KOH pH 7.6, 100 mM KCl (150 or 500 mM where stated), 10 mM MgSO4, 1 mM DTT, 10 mM (so in the source) BSA, 0.01% Tween 20; temperature not stated
T6 sequence: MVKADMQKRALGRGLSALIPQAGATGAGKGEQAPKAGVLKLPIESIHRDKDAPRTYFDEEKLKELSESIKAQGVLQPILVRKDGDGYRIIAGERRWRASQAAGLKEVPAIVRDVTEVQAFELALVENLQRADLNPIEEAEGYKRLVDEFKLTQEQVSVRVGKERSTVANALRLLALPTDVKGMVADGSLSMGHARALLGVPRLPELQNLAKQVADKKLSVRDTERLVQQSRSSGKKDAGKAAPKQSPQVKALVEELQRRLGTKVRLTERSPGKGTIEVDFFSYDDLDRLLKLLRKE

[8] = biological target: T7, ParB-Q52A (Myxococcus xanthus DK1622, UniProt Q1CVJ4 1-296, Q52A); assay: BLI; ParB-Q52A (10 µM) loaded on closed parS DNA on the biosensor; ParA variants (5 µM) in solution with ATP (1 mM) and 500 mM KCl; conditions: both partners purified
T7 construct: ParB of Myxococcus xanthus DK1622, variant lacking CTPase activity; Closed clamps formed with CTP and parS DNA; also called CTP hydrolysis-deficient ParB variant; source: E. coli Rosetta(DE3)pLysS, purified (as wild-type ParB)
T7 sequence (looked up): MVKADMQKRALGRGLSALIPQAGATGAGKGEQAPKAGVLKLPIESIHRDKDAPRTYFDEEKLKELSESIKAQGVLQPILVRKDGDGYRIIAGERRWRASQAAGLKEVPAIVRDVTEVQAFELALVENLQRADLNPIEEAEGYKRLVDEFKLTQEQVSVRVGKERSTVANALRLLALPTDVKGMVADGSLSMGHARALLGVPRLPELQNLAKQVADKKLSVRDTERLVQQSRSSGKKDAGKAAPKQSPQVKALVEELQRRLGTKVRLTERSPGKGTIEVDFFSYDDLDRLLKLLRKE

Molecule: 234-bp parS fragment, closed on biosensor
Kd ([1]; 150 uM ParB1-20 peptide): 400 nM
Kd ([1]; no ParB1-20 peptide): 7800 nM

Molecule: TCCGCTTGGCGTGAGTTCCTGACGCTTGGTGGGAAGGATGCGCGTGCTGATGCGTGCACCTCAGTGAAGTGGATGGCGCGGCTGCTCATGCGCGGGTTGCTCAGCGCCTGTTCCACGTGGAACGCGGGATGGATTGATGGTGGGCACGCGCGCAGCGCCGGAGAGTTCGCTGACGGCTCCGCGTTCAGGCTCGTGATGCGCTCATGGTTCATGGAGTGGTGAGTGCTCCACCGG (double strand) [234-bp parS fragment, closed on biosensor]
Kd [2]: 400 nM
binding [3]: binds
binding [4]: no binding
binding [5]: binds
binding [6]: binds
binding [7]: binds

binding result [8]: binds
B1: ParA-D110R (natural protein, Myxococcus xanthus DK1622, UniProt Q1CVJ3 1-283, looked up)
chain: MHCITRGALAYGRGERGWATVGRIICISNQKGGVGKTTTAINLAASLASAERRTLLVDMDPQGNAGSGLGIKQDNITGTIYEALLNDRPIQELLHPTELRYLQVVPATPRLTGAEVELVNQDNREFRLRDALRPLAAEYDYIIIDCPPSLGLLTLNALAAADSVLIPLQCEYYALEGLSQLTHTIDLVKQGLNPDLKMEGILLTMFDSRANIAHQVVEEVRGYFKKQVFEVIVPRNVRLSECPSFGKPIILYDIKSKGCESYLALGRELMKRDTPKSPRRRVA
notes: ParA of Myxococcus xanthus DK1622 with an exchange in the helix H4/H6/H7 region; source: E. coli Rosetta(DE3)pLysS, purified (as His6-ParA)
